For this series, the target named is T1, His6-PhoP (Pseudomonas aeruginosa PAO1?) (UniProt Q9I4F9).
T1 sequence: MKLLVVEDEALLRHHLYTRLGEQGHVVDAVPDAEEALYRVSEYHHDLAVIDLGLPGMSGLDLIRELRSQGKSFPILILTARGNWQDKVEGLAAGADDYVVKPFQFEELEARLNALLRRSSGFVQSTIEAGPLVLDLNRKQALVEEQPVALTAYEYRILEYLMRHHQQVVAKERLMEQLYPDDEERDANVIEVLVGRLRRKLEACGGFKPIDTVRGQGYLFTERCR
Nature of the series: EMSA. The settings on record: DIG Gel Shift Kit 2nd Generation (Roche) per manufacturer; 6% native polyacrylamide gel; buffer, salt, pH and temperature not stated. For orientation: A gel shift assay detects complexes by their altered migration in electrophoresis.

Regarding “GAGGATCCCAGGAGTGATATTAGCGATTCCCAGTGCTCCCGCAACCTGCCAGAAAACCCAGCGAAGCTTCTTCGGCAGCCATTTTAGAAAAATATATTCCTTTAATTTCAATAAGTTACTTAAATTCACCGAGCGTTTTTGGCAAACCTCCCGGGCATTTATCTACTTAGGCTCACACGCCGTGTAAGTTAATGCTTACAAGAGCAGACACAAAAAACCCGGCGGATCCTC (double strand) [rsmZ promoter, full length]”, the binding entry is “binds”. For the sequence “GAGGATCCGTGAATGGCCGGATTATAGCCAAGTGGCCGTGGCAACGGCATAGGCCGCGGAAGCGCCGTGCGGCGCCCGCGGCTTCGGGCCCGGTCAGGACTCGCCGCGCTCGCGGGCGATGGCACGGTAGCCGATGTCCTTGCGGTAGAAGCAGCCGTTCCAGCGGATCTTCTCGGCCAGGCGATAGGCCTGTTGCTGGGCGGCGGACACGCTCTCGCCGATGGCGGTGGCACAGAGCACGCGGCCGCCTCGAGTC (double strand) [truncated retS promoter, 255 bp, lacking PhoP box]”, the binding entry was “no binding”.

The record behind these values is article PMC3156716.
